# Where two headings read alike, the source gives them in different places.
# What was measured:
# [1] = tested on: ceramide-activated protein kinase; conditions: for membrane-bound kinase activity, fold increase: TNF-α 30 nM
# KSR = biological target: T1, KSR (Mus musculus, UniProt Q61097); test: KSR activity toward Raf-1 peptides in vitro; assay type: biochemical, mouse (KSR immunoprecipitated from COS-7 cells); set-up: Raf-1 peptides as substrate
# T1 sequence (Q61097 1-873): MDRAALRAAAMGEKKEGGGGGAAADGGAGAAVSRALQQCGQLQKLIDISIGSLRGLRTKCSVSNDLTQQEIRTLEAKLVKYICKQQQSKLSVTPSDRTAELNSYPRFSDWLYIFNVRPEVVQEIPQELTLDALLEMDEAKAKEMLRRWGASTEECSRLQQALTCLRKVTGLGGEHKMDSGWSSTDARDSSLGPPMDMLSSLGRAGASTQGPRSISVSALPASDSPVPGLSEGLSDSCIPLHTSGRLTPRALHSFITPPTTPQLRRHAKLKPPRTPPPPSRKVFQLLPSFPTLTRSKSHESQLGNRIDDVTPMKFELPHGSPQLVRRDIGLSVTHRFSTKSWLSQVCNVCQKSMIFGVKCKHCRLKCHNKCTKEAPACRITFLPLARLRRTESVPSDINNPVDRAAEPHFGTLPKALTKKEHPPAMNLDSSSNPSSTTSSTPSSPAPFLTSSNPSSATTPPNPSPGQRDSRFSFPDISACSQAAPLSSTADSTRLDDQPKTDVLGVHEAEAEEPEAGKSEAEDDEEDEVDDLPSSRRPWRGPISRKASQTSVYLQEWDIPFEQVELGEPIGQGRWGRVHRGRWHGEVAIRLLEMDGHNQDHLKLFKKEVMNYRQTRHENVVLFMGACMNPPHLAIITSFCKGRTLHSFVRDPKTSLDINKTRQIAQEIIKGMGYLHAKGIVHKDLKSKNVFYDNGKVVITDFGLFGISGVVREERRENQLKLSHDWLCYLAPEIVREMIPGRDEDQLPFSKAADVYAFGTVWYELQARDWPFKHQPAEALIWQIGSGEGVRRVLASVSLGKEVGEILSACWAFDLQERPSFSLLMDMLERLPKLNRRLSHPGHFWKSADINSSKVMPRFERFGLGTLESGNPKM
# Procedure, shortened: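 Flag-tagged KSR immunoprecipitated from COS-7 lysate, incubated with 0.3 mM Raf-1 TTLP peptide, 10 mM MnCl2, 5 μM ATP plus [γ-32P]ATP at 22 °C, with 30 nM ceramide or other lipids; P81 filter binding and Cerenkov counting, AALP-peptide background subtracted.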
# Raf-1 = test: Kinase activity of immunoprecipitated Raf-1 toward MEK1 after HL-60 cell stimulation; assay type: cell-based, human (HL-60 cells)
# Description: Recovery of MEK1 was monitored by western blot (Bottom Panel). Identical results were obtained with cells stimulated for 5 min with TNF.
# Recovery of MEK1 was monitored by western blot (Bottom Panel).
# These studies indicate that Raf-1 is a component of the sphingomyelin pathway mediating TNF action.
# MEK1 autophosphorylation was for 45 min. An autoradiogram of MEK1 phosphorylation (top panel) and recovery of MEK1 protein by western blot (bottom panel) are shown. For western blot, proteins separated by SDS-PAGE were electrotransferred to an Immobilon PVDF membrane at 12 volts overnight at 4° C. Membranes were then blocked with 2% BSA in TBS [20 mM Tris, pH 7.6, 137 mM NaCl] for 1 hr and washed with TBST (TBS containing 0.2% Tween-20).
compound,measurement,setting,value
CCCCCCCCCCCCC/C=C/[C@@H](O)[C@@H](N)CO [sphingosine],effect on kinase activity in membranes of stimulated HL-60 cells,"[1]; cholera toxin 10 nM, retinoic acid 0.5 μM, butyrate 0.5 mM",similarly as effective as C8-cer
same,activation of KSR,KSR,fail to activate KSR
TNF-α,kinase activity of Raf-1 toward MEK1,Raf-1; HL-60 cells treated with TNF or ceramide analogs,10-20 fold
same,"kinase activity, fold of control","[1]; 3 pM TNF-α, 60 minutes",1.1 fold of control
same,"maximal kinase activity, fold of control","[1]; 30 nM TNF-α, 60 minutes",1.8 fold of control
same,ED50 for kinase activity,[1]; 60 minutes of stimulation,≈ 200 pM
same,"membrane-bound kinase activity, fold increase",[1]; 5 minutes,1.5 fold
same,"membrane-bound kinase activity, fold increase",[1]; 2 hours,2.2 fold
same,"membrane-bound kinase activity, fold increase","[1]; 2 hours, listed as TNF",2 fold
"CCCCCCCCCCCCCC(=O)O[C@@H]1[C@@H](C)[C@@]2(O)[C@@H](C=C(CO)C[C@]3(O)C(=O)C(C)=C[C@@H]23)[C@@H]2C(C)(C)[C@]12OC(C)=O [TPA, 12-0-tetradecanoylphorbol-13-acetate]",increase of Raf-1 activity,"Raf-1; TPA 100 ng/ml, 10 min, maximum",4 fold of control
same,effect on activation of KSR towards Raf-peptide,KSR; 30 nM,no effect
